A protein production outcome set (Wang et al. 2014)

Assay: label from the status in PepcDB records

Row | Sequence | protein production
1 | EQYEIGVKPPKPANITATYTGGVLTVRVTENGKTLTLTSNVTMPTGTGPFPVVIGMNARTGQLPTNLFNGVIQIPFNHDQVAKYTQGDRDPSYPFFQLYPNLTSNGYYSAWAWGISRLIDGIELVQAQLNADTKRIAVTGCSYAGKMALFAGAFDERIALTIAQESGGGGVNAWRVSETIGNVEKISNTNYAWFMQSLKTNFQNGNAVKLPYDHHELMAMIAPRALLVLGNPPFEWLGDESGYVSSRAAQEVWTTLGVPERFGFSFRGGHDHCSLPSASNAEVTAFVDKFLR | failed
2 | MGDMIFGILTWLPGLILAITLHEAAHGYVASALGDQTARLLGRVTLNPIRHVDPFGTLVLPGLLFLVGAPFLFGWAKPVPVDYRNLRHPKRDMAWVALAGPGMNIFLAVVSAAALHGALLLPDPAADWLITTLQKSVLINCVLAVFNMIPVPPLDGGRVLVGILPMRAAVVVARMERVGMLALIGVIFLLPLALSQFGVDFDPFSRIIGPVVRALLGAVYTTAGIPLF | failed
3 | MASPAAGDVLIVGSGLVGRSWAMLFASGGFRVKLYDIEPRQITGALENIRKEMKSLQQSGSLKGSLSAEEQLSLISSCTNLAEAVEGVVHIQECVPENLDLKRKIFAQLDSIVDDRVVLSSSSSCLLPSKLFTGLAHVKQCIVAHPVNPPYYIPLVELVPHPETSPATVDRTHALMRKIGQSPVRVLKEIDGFVLNRLQYAIISEAWRLVEEGIVSPSDLDLVMSDGLGMRYAFIGPLETMHLNAEGMLSYSDRYSEGMKRVLKSFGSIPEFSGATVEKVNQAMCKKGPADPEHLAARREWRDECLKRELAKLKRQMQPQ | not failed
4 | MTRVTTTGIPMNNVPSGRHHVSTSRNLFAWFLFALLLLSLYLSYQLVAPFLHTIILSSVFSASIYPFYRRLTSYLGERPVPAALLVLAGVVILVVIPVVVFVIGLIPQAVASVSAITRWLAGHGGLDGLNDAALAPYIAWVRENLPFIDPAQLDVRSSLVQASRAAGQTLLQWGTYVLGNTLLLFGHFLLLLLCMFFMLKDGAWMVQRVRYLSPLRIDQQDRIILELRRVGRSVLVGGLLVAVIQGLLGGVALAAVGIPALFWGTLMAFASLVPVVGTGLVWVPAVCYLLLTSQWESALFLSLWCGIVVVGADSILRPYFMRGGVGMPVFFIFLSILGGVKAFGMLGILDGPLILSFTVVMLSLYGDEYRDILDAGSLAHSRGAECEKGEASEEGPDGT | failed
5 | MSVQNIVNINESNLQQTLEQSMTTPVLFYFWSERSQHCLQLTPVLESLAAQYHGQFILAKLDCDAEQMIAAQFGLRAIPTVYLFQNGQPVDGFQGPQPEEAIRALLDKVLPREEELKAQQAMQLMQEGNYIDALPLLKDAWQLSSQNSEIGLLLAEAQIALNRSEEAEAVLKTIPLQDQDTRYQGLVAQIELLKQAADTPEIQQLQQQVADNPQDAALATQLALQLHQVGRNEEALELLFSHLRKDLTAAEGQTRKTFQEILAALGTGDALASKYRRQLYALLY | not failed
6 | HDLALSGNAYKVRLFLSLIGREATLRPVDFLNREHKTQAFLRMNPRGQIPVLEDGELQLGDSHAILVYLARRHADPVWYPLDPVSQGRIAYWLSYSANEVQNGPASARLITRFNLPLDREQTHQRGLEVLRLVDRHLAEHRWLAQGEQPSIADVALYPYLALAPEGGLALDHYPALNAWIARIRALPGYIPMPGL | not failed
7 | MAGCRTNAKGNAMPISIRIGNQDLTVDVSSLGAEMQALTSGDGRSWLWTGDAAFWTGRSPILFPIVGKAPDDKIAIDGTVYPMAQHGFARRSEFALAASTETMCRFELAASEATRAVYPFDFQLAVVHAVEGRALTVTAEVTNRDPKPMPFGLGFHSAFAWPLPGASGRDHIVTLDNKGEPALVRLEGGLINPAPLPSPFNAGRLVLDHSMFEQDAMIFPDGAGEGLAYGSEGGPAMRFHFKNLPNLALWTKPGAPFLCIEPWHGTAAEAGASSELSKRPSTTILAPGAVASFAFTVEIPQ | failed
8 | MSNQFIQYLNRAASGSIPGFVIMKLLMLELPNLMGLLLPLGFYVALLLAYGRLYAESEMTVLRACGYGPRQLLKHSFAMATVVLVVVAIVMIWASPVIAVERIKLIRSTGIKTLIQTIMPGRFHAINSGQQIFYVQSMNRDHSQAEQIFMAKHSVQDNRLLWDVLWADKAFAEVNPQTGEEYIVLQNGKEYQGVPGHADYQIAEFASYKSKLPNPTVVMHDDARTAKTRDLWPLNNHDLKKAAELQWRISIPLMVLTLTLVAVPLSRVSPRSGKYSKLLPAIIIYIFYANFMFVSRDAIATGKIPWWIGMWWVHVAVAILGILFIWRNQVKLA | failed
9 | MKVYDVTAPIYEGMPVYKNKPEKQPKRTTITNGYVTESRIDMDVHTGTHIDAPLHMVEGGATFETIPLNDLVGPCKLFDLTHVNDRITKDDIAHLDIQEGDFVLFKTKNSFEDAFHFEFIFVAEDAARYLADKQIRGVGIDALGIERAQEGHPTHKTLFSAGVIIIEGLRLKDVPEGRYFMVAAPLKLVGTDAAPARVLLFDREP | not failed
10 | MTNTRNENLGYVYGLIAVTAFALTLPAMRAALSALDPVFVALGRGAGAAVLAAVFLWFTRQRLPTREEAKGLIIVAAGAVIGFPLLAAWAMLYVDASHGGVVLGILPLATAVAAALFSNERPSMKFWLFALIGAGLVVGYSLSRAGGTLHPADLALFGSIVCAGVSYAEGARLSKSLGGPQVISWALVFSFPILIIPAIHYAPVSLNLPLESWLGFIYLTVISQYLGFFPWYHGLALGGIAKVGQTQLLQPFLTIIASVLLLGEHADLMTWLVATLVVAVVAVGKHAQVKHNDPESATIADTSPHS | failed
11 | MSHEVDELFDAEMLQQAKTLSAFMSVNSERLPEAGVIIESIGAHNYEDKLSYRIENTEELLLMQTEGAPDASAFEFIPGFSVKRVKDELWHAFGLENATGQRILMLQEDGFRSELRMDLTVDTVIPILLILPFMLWLGWWTINRNFSSFNRLAGELRRKRADDYTNFVEDNDREEVALVKRSLNHYINRIEQTFLREKRFSADAAHELRTPLASLKAQIQSRLGSATSEQQNELQPLLDSTERLVKLVESLLQLSKAELPPEQLKQVNVASVLRQVLADQYVAAESKGLSYHAQLPTVFQQTSDESYLYLLFANALDNAIKYAVPGSHIGIEVTENQIFVCNRVAADHVIDIDRITERFYRGKQLDVEGSGLGLSIVRNLAEQLGVQINFRHIDDEFCFIVTFDTDQ | failed
12 | ATLKQLDGIHVTILHKEEGAGLGFSLAGGADLENKVITVHRVFPNGLASQEGTIQKGNEVLSINGKSLKGTTHHDALAILRQAREPRQAVIVTRKLTPEAMPDLNS | not failed
13 | MNIGRHLLLVLFGWLPVRLGFAADAISVVDKQPVNWVAITMFAVFVLITLWITQWAAKKTRSSADFYTAGGTVTGFQNGLAIAGDYVSAASFLGITSAVMANGYDGMLYAIGFLVGWPILTFLIAERLRNLGKYTFADVVAYRFAATSVRLFASVSTLVVVLCYLIAQMVGAGALIRLLFGLDYWVAMVLVGGLMMVYVLFGGMAATTWVQIIKAVLLLIGATFMAVMIMRRFGFNFEGLFASAVEVKTQIAMAGGKSGEEAKALGLSIMAPGSFIKDPISAISLGIALVFGTAGLPHILMRFFTVPDARQARHSVLWAITWIGYCYILMFIIGFGAIVLVLANPQYADIASGTIRGGQGAANMAAVLVAKVVGGNVFMGFVSAVAFATILAVVAGLALSGASAVSHDVYAMVIKQGKPSSDTELLVSRVTTAVLGVVAVLLGIVFQKQNVAFMVSLAFAIAASANFPVLVLSLFWKNCTTRGAVIGGFLGLISSLVLTVLSPSVWVDTLGHSVDSVRFPYTSPALFSMTIGFVGIWLFSVLDRSGRAAKERVAFKAQQVRAETGLGASKMSPN | failed
14 | SAVLVALSLAGLPTDRFFFDGFLPSKQGARRARLGELAAIDATLVLFEAGSRIQNSVHDLADLLGATREAAICRELTKLHQEVRRATLAELAAQADTMETRGEFVVVIAP | failed
15 | MHELSISRHIAAPPGKVWDVLANRQEEWWCPRPWWITLIAQERRPGGRSAMVMHGPDGEEMPQEGIFLAWDEGHRFVTTDAVTADFLPAGPFMVGIWEVEPEGEGTRYTASARHWTEEAMREHAEMGFEAGWNACADQLQALCEAD | failed
16 | MIEDKFMRVLLMFDVPTKSKKEQKLASKFRNNLIKLGYFMLQFSVYMRICKGLSSAKSSIENVKKILPPYGNVRALIITEKQFDKMELLLGGIVFNEKVNNETNLTLFDIDSHGEFKYKNSNNEEIQINKKQEKYHQQNLFEFLEHHHHHH | failed
17 | MITVFGLKSKLAPRREKLAEVIYNSLHLGLDIPKGKHAIRFLCLEKEDFYYPFDRSDDYTVIEINLMAGRMEGTKKRLIKMLFSELEYKLGIRAHDVEITIKEQPAHCWGFRGMTGDEARDLDYDIYV | not failed
18 | MSGLRVYSTSVTGSREIKSQQSEVTRILDGKRIQYQLVDISQDNALRDEMRTLAGNPKATPPQIVNGNHYCGDYELFVEAVEQDTLQEFLKLA | not failed
19 | MRYLVWALRLLVFVAVLMFALKNTNPVAVTFYADYVVHDVPLIVVMLVVFVVGALFGLLLTVPAAMRRRREALRLRREVERLQAAASGTPPVVTPEAVAPMSPL | failed
20 | IDKKLTTLADLFRPPIDLMHKGSFETAKECGQMQNKWLMINIQNVQDFACQCLNRDVWSNEAVKNIIREHFIFWQVYHDSEEGQRYIQFYKLGDFPYVSILDPRTGQKLVEWHQLDVSSFLDQVTGFLGEHGQLDGLSSS | not failed
21 | MYKILIVEDDPNISSLLQSHIQKYGYEAVVAENFDDIMESFNAVKPHLVLLDVNLPKFDGFYWCRQIRHESTCPIIFISARAGEMEQIMAIESGADDYITKPFHYDVVMAKIKGQLRRIYGDYAPNISERIVEVEGLKLFPERPEIHFGSEQVLLTKKEAILAEMLLSKFPRTASREDLLAALWDDESFVEENTLNVNITRLRKKFNELGIENAIETVRGLGYRFNATWSE | failed
22 | MIVLGHRGYSAKYLENTLEAFMKAIEAGANGVELDVRLSKDGKVVVSHDEDLKRLFGLDVKIRDATVSELKELTDGKITTLKEVFENVSDDKIINIEIKEREAADAVLEISKKRKNLIFSSFDLDLLDEKFKGTKYGYLIDEENYGSIENFVERVEKERPYSLHVPYQAFELEYAVEVLRSFRKKGIVIFVWTLNDPEIYRKIRREIDGVITDEVELFVKLR | not failed
23 | MSEKDFVQVAKLGKTVGLKGYVKLHNLSDFSSQFKKDATFFIKNTKEMLKIKHYNANNSTVLFENYEDIEKAKELTNLILFQSIEKSRQTCKLKKDEFFYFDILECEVFEEDKRLGKVVDILETGASYLFEIQSDEKWVEKKYPKIFFIPYLDKFVKNIDIEKRQIFCTQDAFLILENSLEHHHHHH | not failed
24 | MSLRRLLAVFAVVGMVVIAGCAGGIDNGEPATSGVTEQATTTVATTETAAPTGELVVHQLNVGQGSSTLVVGPDGETLLIDTGDWTDDGEDVIAYLESQGVTRIDHLVTSHPDADHIGGHAAVIEHFETNGDGVGAVYDPGIASSSATYEEYLDAVEAHNVPLYRTQAGDSIPMSGATAQILAPPEGYLANEDRNENSIVVHVQFGASSFLLPGDGETASEEYLVDTYGDRLNSTVLVVGHHGSRSSTSAAFLEAVSPRVAVISSAYESQYGHPHEAVLERLAARSIPTYWTATHGTITFTSNGSAVTVATQQDAPTTATELRSGDPVEPGTGGGLVDRLVIPTAGSGTTPITDPDGTTEPAETTSTSTAGRLDLVEIHADAAGDDAENLNGEYITVEHTGASSLDLSGWTLADAAGHSYTIPEGTVLEPGDQLTIYTGSGTDTATELYWGQSSPVWNNGGDTISLRDATGTTVIEETY | failed
25 | MNITLAVLQLEDIPQAKQFAIRTRQLLFPDVYQLALPYDLTHFQDVYLHDQKGACFVVKDQQHNIIGMIAYRAYNHRFALDIPKDSVEVVKLFIQPEYRRQGLASRLCEALFGYAAQQKIKYFYLHTHPFLPAAEYFWTKQGFDVIHREEIQNYDTIHMFKSA | failed
